Assay results taken from patent US9512195B2, “Insulin derivatives containing additional disulfide bonds” (Novo Nordisk A/S, priority 2010, dated 2016).

Target: T1, human insulin receptor (human IR-A) (Homo sapiens, UniProt P06213)
T1 construct: solubilized human IR (holoreceptor); expressed in transfected cells; host or cells: baby hamster kidney (BHK) cells, stably transfected (pZem vector); detergent-solubilised and semipurified on wheat germ agglutinin
Assay: Insulin receptor binding assay (SPA, on solubilised insulin receptor)
Conditions: comparison table of side chain and parent insulin mutations (rel. to HI)
Experimental: Insulin Receptor Binding Assay (on Solubilised Insulin Receptor)
Competition binding experiments were performed in 96-well plates (polystyrene Optiplate-96, PerkinElmer) on an Eppendorf epMotion 5075 robot using solubilized human IR (holoreceptor) semipurified by wheat germ agglutinin purification from baby hamster kidney (BHK) cells, which were stably transfected with the pZem vector containing the human IR-A or IR-B insert.

T1 sequence (P06213 28-746 isoform P06213-2 limits assumed): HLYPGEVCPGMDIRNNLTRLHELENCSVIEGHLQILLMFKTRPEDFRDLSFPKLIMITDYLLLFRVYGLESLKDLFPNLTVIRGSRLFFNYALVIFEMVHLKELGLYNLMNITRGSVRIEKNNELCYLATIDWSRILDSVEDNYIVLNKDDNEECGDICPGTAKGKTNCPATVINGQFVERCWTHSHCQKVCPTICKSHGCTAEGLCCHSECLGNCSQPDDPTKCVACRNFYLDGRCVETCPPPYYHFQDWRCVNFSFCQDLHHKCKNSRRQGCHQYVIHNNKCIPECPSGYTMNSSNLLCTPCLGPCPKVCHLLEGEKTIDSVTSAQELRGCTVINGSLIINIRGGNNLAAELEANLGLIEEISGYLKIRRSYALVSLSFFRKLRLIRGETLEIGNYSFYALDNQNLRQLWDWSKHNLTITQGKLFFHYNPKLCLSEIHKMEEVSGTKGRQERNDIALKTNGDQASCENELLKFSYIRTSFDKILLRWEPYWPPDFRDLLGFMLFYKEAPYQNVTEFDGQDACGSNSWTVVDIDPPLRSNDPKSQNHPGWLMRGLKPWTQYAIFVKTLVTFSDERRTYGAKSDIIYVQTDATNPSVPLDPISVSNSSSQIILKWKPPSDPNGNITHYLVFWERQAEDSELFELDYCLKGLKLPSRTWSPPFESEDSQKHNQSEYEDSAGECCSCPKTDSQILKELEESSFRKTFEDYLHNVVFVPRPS
T1 sequence (P06213 763-1382 partner limits assumed): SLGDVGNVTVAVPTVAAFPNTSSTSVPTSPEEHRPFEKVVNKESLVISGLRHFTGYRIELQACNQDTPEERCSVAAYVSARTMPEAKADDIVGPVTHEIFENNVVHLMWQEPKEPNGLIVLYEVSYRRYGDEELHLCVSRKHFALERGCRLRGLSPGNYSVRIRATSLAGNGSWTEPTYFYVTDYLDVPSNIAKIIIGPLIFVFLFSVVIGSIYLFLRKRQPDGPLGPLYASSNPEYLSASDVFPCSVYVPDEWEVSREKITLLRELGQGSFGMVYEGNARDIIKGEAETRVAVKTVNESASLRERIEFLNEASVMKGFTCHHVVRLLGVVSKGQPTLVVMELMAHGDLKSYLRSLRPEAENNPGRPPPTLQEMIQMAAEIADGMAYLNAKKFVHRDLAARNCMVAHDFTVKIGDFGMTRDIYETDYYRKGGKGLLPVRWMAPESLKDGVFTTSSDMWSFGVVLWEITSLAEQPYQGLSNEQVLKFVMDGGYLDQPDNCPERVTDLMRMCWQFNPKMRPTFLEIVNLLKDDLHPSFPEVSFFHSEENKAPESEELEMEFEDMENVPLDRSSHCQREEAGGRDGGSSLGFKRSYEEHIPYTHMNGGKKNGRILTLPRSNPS

Relative IR-A affinity SPA assay (@ 0% HSA) (0% HSA): 10.4
Relative IR-A affinity SPA assay (@ […] ([…] (HSA)): 0.70
Substance: C18-gGlu- desB30: desB30 human insulin with side chain C18-gGlu- (cell cut off), no additional disulfide bond
